Legend:
[1] = tested on: SOS-regulated sulA promoter (sulA-GFP); experiment: MMC-induced expression of sulA-GFP (SOS response genes), flow cytometry; type: cell-based, E. coli; conditions: SMR6039-DE3 with pETIL-L2, IPTG-induced versus uninduced, 0.1 μg/mL MMC
Text: (§1) FIG. 21. Biological Activity of L2 Lariat and Cyclic Peptide.
We used the SMR6039 E. coli strain, which expresses GFP under the control of a SOS-regulated sulA promoter (Hastings, P. J. et al. (2004) PLoS Biol. 2:e399) to monitor induction of the SOS response pathway. We used the λDE3 Lysogenization Kit (Novagen) to modify SMR6039 to express T7 RNA polymerase, which allows expression of the L.2 lariat from the T7 promoter in pETIL-L2 plasmid. […] We measured the GFP fluorescence of the samples using flow cytometery (Epics X L, Coultier, Mississauga, ON). We scored cells as positive for SOS induction in they expressed more than one fluorescence unit of GFP.

[2] = Amount of lactone-cyclized L2 lariat, ESI-TOF MS and Na18OH cleavage; type: physicochemical
Text: FIG. 17. Analysis of L2 Lariat. […] (i) Yeast growth on nonselective His^−,Trp^− glucose media. […] (i) Lariat cyclized through a lactone bond. (ii) Lariat cleaved prior to Na^18OH treatment.
FIG. 20. Quantification of Lariat Prior to MS analysis. (a) Analysis of ^18O incorporation at the tyrosine carboxylic acid at position (IN−1). Trypsin digest of the Na^18OH treated lariat produces a peptide fragment containing tyrosine at position (IN−1) ([…]). The ^16O product has a calculated mass of 966.420 m/z and the ^18O product has a calculated mass of 968.420 m/z. (b) Mass spectrometry analysis of […] peptide fragment from the Na^16OH or Na^18OH treated samples over layed with the theoretical isotope distribution (MS-ISOTOPE software). In the Na^18OH treated sample there is a large deviation from the theoretical distribution indicating the presence of more than one peptide. […] The 1+ and 2+ charged fragments were analyzed and similar results were observed. Only the 1+ charge is shown. (d) Overlay of the sum of the calculated contributions of the ^18O and […] on the observed […] peptide fragment spectrum. (e) Analysis of ^18O incorporation at the serine side chain at position (IC+1). Trypsin digest of the Na^18OH treated lariat produces a peptide fragment containing serine at position (IC+1) ([…]). The mass of this fragment is 2590.352 m/z corresponding to a product 1 Da heavier than the predicted ^18O incorporated product. A 1 Da shift can be attributed to deamidation of asparagine. […] The 2+, 3+4+and 5+charged fragments were analyzed and similar results were obtained. […] (h) Overlay of the sum of the calculated contributions of the ^18O and ^16O peptides on the observed […] peptide fragment spectrum.
We used LC-ESI-TOF MS to confirm the molecular weight of the His-tag lariat purified from E. coli. To confirm the presence of the lariat lactone prior to MS analysis, we treated His-tag lariat with 0.5 M Na^18OH, purified the products using reverse-phase HPLC, digested them with trypsin, and analyzed the molecular weight of the trypsin fragments using LC-ESI-TOF MS. […]

BL21-CP cells = experiment: Bacterial viability (survival) assay with and without MMC; type: cell-based, E. coli; conditions: one hour
Method: as §1
FIG. 22. […] Survival assay for BL21-CP cells treated synthetic linear L2 peptide. Cell survival is reported relative to the untreated control.
We performed cell viability assays as described by Lin and Little (Lin, L. L. & Little, J. W. (1988) Bacteriol. 170:2163-2173). For assays where L2 lariat is expressed from pET28b plasmid, we cultured BL21(DE3)-CP containing pETIL-L2 or pETIL-01 to an OD600 of 0.4 in LB-KAN at 37° C. We split the samples in two and induced one sample with 1 mM IPTG for 1 hour and left the other the other sample uninduced. […] We removed 10 μL and diluted it […] in ice cold LB (1 mL) for a zero time point control. We incubated the remaining sample at 37° C. for 1 hour and then removed 10 μL and diluted 1000-fold into 1 mL ice-cold LB. We plated a 60 μl aliquot from the 0 and 1 hour samples on LB plates and incubated the plates at 37° C. overnight.

LexA = LexA (Escherichia coli, UniProt P0A7C2); conditions: BL21-CP cells expressing the lariat, 0.1 μg/mL MMC, 0-3 hours
Text: FIG. 21. Biological Activity of L2 Lariat and Cyclic Peptide. […] Error bars represent the standard deviation of three independent experiments.

[3] = His-tag lariat from pETIL-L2 in BL21-CP

LexA, sequence (P0A7C2 whole entry): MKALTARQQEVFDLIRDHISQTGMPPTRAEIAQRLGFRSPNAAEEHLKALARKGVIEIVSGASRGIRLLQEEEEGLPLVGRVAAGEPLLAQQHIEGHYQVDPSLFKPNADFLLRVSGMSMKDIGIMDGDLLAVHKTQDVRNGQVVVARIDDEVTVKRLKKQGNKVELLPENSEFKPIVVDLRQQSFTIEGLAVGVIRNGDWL

Q: For “L2 lariat: anti-LexA lariat, lactone-cyclized noose sequence (RSWDLPGEY), expressed from Ssp DnaE lariat intein with Asn to Ala at IC−1 (G7)”, which “percentage of GFP expressing cells (sulA-GFP) after MMC” value [1] is on record?
A: decreases

Q: What about the “fraction of product corresponding to hydrolyzed lariat (8669 Da) by MS” value [2, 3] of the same substance?
A: 85%

Q: And the “fraction of product corresponding to the L2 lariat (8651 Da) by MS” value [2, 3]?
A: 15%

Q: And the “lariat cyclized prior to MS analysis” value ([2]; from fraction of 18O incorporated after Na18OH cleavage and trypsin digest)?
A: 46%

Q: What about the “viability with lariat expression plus MMC” value (BL21-CP cells; of the control, IPTG induction plus MMC 0.1 μg/mL) of the same substance?
A: < 1%

Q: What about the “viability on expression of the lariat alone” value (BL21-CP cells; of the uninduced controls, IPTG induction, no MMC, 0.85% NaCl) of the same substance?
A: ~35%

Q: What about the “MMC-induced LexA cleavage” value (LexA) of the same substance?
A: not observed after three hours

— patent US20130273553A9, “STABILIZATION OF CYCLIC PEPTIDE STRUCTURES” (priority 2007, published 2013)
